The DeepSol protein solubility set

Experiment: soluble on expression in E. coli; label from the status in PepcDB or PDB records

Sequence | soluble on expression in E. coli
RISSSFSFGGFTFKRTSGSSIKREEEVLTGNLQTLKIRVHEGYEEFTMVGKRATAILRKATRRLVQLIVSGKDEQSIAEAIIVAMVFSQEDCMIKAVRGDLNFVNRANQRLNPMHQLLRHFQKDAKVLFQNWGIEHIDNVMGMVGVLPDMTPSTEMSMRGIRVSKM | soluble
RMSEQSICQARAAVMVYDDANKKWVPAGGSTGFSRVHIYHHTGNNTFRVVGRKIQDHQVVINCAIPKGLKYNQATQTFHQWRDARQVYGLNFGSKEDANVFASAMMHALEVLNS | soluble
RPAVFPRMGVLPARVALLGQGQHWGVDFCLNVFRANFAEDREIQSEDVVRDLLRAQDLDADALIAQARQESTKEALRKQVDRARALGIFGAPTFMVDGEMFWGNDRLED | not soluble
RSFTAFLLFLPVGFLYPLAKKKELALQRQEELRRQFKEAVLILSSSLGAGYSVENAFAGSLRELEELYGREGMITKEFSYIAHQLRMNRTVETLLAEFADRSGLEEIKNFSDIFAVSKRSRGELVSVVNHTVHVISDRLQVREEILTMTAEKQFEQKIMNLVPYCIVIYIEFSSPGFFRQMYG | not soluble
RSLVSVHNEWDPLEEVIVGTAVGARVPTADRSVFAVEYAGDYESQEQIPSGAYPDRVLKETEEELHVLAAELTKLGVTVRRPGPRDHSALIKTPDWETDGFHDYCPRDGLLSVGQTIIETPMALRSRFLESLAYKDLLLEYFASGSRWLSAPKPRLTDDSYAPQAPAGERLTDEEPVFDAANVLRFGTDLLYLVSDSGNELGAKWLQSAVGDTYTVHPCRKLYASTHVDSTIVPLRPGLVLTNPSRVNDENMPDFLRSWENITCPELVDIGFTGDKPHCSVWIGMNLLVVRPDLAVVDRRQTALIRLLEKHGMNVLPLQLTHSRTLGGGFHCATLDVRRTGALETYQF | soluble
RTDTIMVLHIPSSGKATLMSIPRDSYVEIPGYGMDKINASFTYGGAPLLTQTVENATGLRINHYAEIGMGGLANVVDAVGGIEVCPAEPIDDPLAGLNIAAGCQKVDGPTALGYVRTRHTALGDLDRVQRQREFFAALVNKVTS | not soluble
RVASNLDNKARVTELFKSAYSILTEVEKMAVEGKMPEEEAKALATRLLRNNIYKDNEYVYVADENMMFIAAPLDPQLHGTSFHDFKDGSGNSVGQ | not soluble
RVSLLKRKYKRVTTIAERTRRAQSETDRRNYTAASKARTQAQRSSKPQRTRASSRSRRDNSVTVEELMRRRQEQQQTGAKSFAPRPTRTAAQREAAERDLTRRLVNPDPEIHRTRTFDDDLYS | not soluble
RVSNEFPPREYIATVYNRICNYLQIGEGEGFERSFDFDIDAFCRNFRMFPTQVLAAIRILDVAGIWEYREEKTRSRLTIQVQRDELYRMRSEQASDSVLTALMRTYDGLFADYVSIVESELAEKTGLSVDQVYQQLLLLNKAGIVNYIPQKNLPRIYFLTRREDAELLQIPRAAYEDRRDRLKARIDQSLRYIEEENTCRSRMLLAYFGEEQSHNCKLCDVCLRRKDGELHHHEVDDLLHFLEQRLTEETPYVLIADICRELHHHPDVVLKAIRFVMKESWQYSTDGDTVFLTHKLPGGLNL | not soluble
RYSHSLGVYELLRRILNTPAFAPIDENKKQTVLVAGLLHDIGHAPHSHAFEIYFAKAPNFKKELFIHEEVTTLFVNSEPIKSILKANQIDPKLVAALIDENKELKPSNYWMRQLISSDLDADRMDYLLRD | not soluble
SAASGESGTSGGGGSTEEAFMTFYSEVKQIEKRDSVLTSKNQIERLTRPGSSYFNLNPFEVLQIDPEVTDEEIKKRFRQLSILVHPDKNQDDADRAQKAFEAVDKAYKLLLDQEQKKRALDVIQAGKEYVEHTVKERKKQLKKEGKPTIVEEDDPELFKQAVYKQTMKLFAELEIKRKEREAKEMHERKRQREEEIEAQEKAKREREWQKNFEESRDGRVDSWRNFQANTKGKKEKKNRTFLRPPKVKMEQRE | soluble
SAASKLQAFWNHPAGPKTIHFWAPTFKWGISIANVADFAKPPEMISYPQQVVVACSGVIWARWGMVITPINWNLSSVNAAMAVTGVCQLSRKIRHDYFSDEKSATASLEG | soluble
SAEKFDHLEEHLEKFVENIRQLGIIVSDFQPSSQAGLNQKLNFIVTGLQDIDKCRQQLHDITVPLEVFEYIDQGRNPQLYTKECLERALAKNEQVKGKIDTMKKFKSLLIQELSKVFPEDMAKYRSIRGEDHPPS | soluble
SAQSQRAPDRVLCHSGQQQGLPRAAGGSVPHPRCH | soluble
SASFVGTPLPESENISLYQSRVTVAELEMLASRFVGRTRVKVAFQAYWSQQREELLPNQQAPSSLIRHTERVLAGVFGASSAKLVLTSALQGRNMQLEEVATIVDEAS | not soluble
SASMAGPDHLFNLRNHFYLGAYQAAINNSEIPNLSQEDIVERDCLVHRAYIALGSYQLVISEIDEAAATPLQAVKLLAMYLSSPENKESTISSLREWLADPTVGNNAIIRLIAGTIFMHEEDYNEALKHTHSGGTMDLHALNVQIFIKMHRSDFAEKQLRVMQQIDEDHTLTQLASAWLNLAVGGSKIQEAYLIFQDFSEKYPMTSLILNGKAVCCMHMGNFEEAETLLLEALNKDAKDPETLANLVVCSLHVGKSSSRYLNQLKLSHPEHVLVKRAASAEDNFERALQSFA | soluble
SATQIPSTISILATSDIHGNVLNYDYATGKAPTNTQGLAKVSSYVNSVRASKPNVMLIDDGDTIQGTPLSYYYDKIDTTSEYPLMKIMGAMKYDTWTLGNHEFNYGLPTLNRVISDARKENINVLSANTYNSDNTNFVNPYYIKTFNINGKTVNVGILGLTTKCIPDWEDPSHYAGLHFNDLVDEAKLWVPRMKAAGANVVIVAAHSGEEGAADTIPENQIKAIATNVSGIDAIVAGHAHVTVNDTSLKNPNGKTVPVVEPNKWGTFVSQIDITLDNSGNASTINTQNVKMTDSIPEDPNIVNIIQPYQNKTLDYIST | not soluble
SAVFSDPQIAMVGETYKEITTRLGTCGCFATGEVSFENQGRSRVMLRNKGILHVYGEQGTGRFLGAEMMGPNAEHLAHLLAWAHQNKMTVSEMLDMPFYHPVIEEGVRTALRDLNAKLHLGPEMIKHCMDCGPGC | not soluble
SCQDLRVLNAIRDYHIGIPLTYTQYKQLTIQVLLDRLVLRRLYPLAIQICEYLRLPEVQGVSRILAHWACYKVQQKDVSDEDVARAINQKLGDTPGVSYSDIAARAYGCGRTELAIKLLEYEPRSGEQVPLLLKMKRSKLALSKAIESGDTDLVFTVLLHLKNELNRGDFFMTLRNQPMALSLYRQFCKHQELDTLKDLYNQDDNHQELGSFHIRASYAAEERIEGRVAALQTAADAFYKAKNEFAAKATEDQMRLLRIQRRLEDELGGRFLDLSLHDTVTTLILGGHNKRAEQLARDFRIPDKRLWWLKLAALADLEDWEELEKFSKSKKSPIGYLPFVEICMKQHNKHEAKKYASRVGPEQKVKALLLVGDVAQAAEVAIEHRNETELSLVLSHCTGATDGAIADKIQRARAQAQKK | soluble
SDKLNKITVPASQKLRQLQKMVHDIKNNEGGIMNKIKKLKVKAPPSVPRRDYASESPADEEQQWSDDFDSDYENPDEHSDSEMYVMPAEENADDSYEPPPVEQETRPVHPALPFARGEYIDNRSSQRHSPPFSKTLPSKPSWPSEKARLTSTLPALTALQKPQVPPKPKGLLEDEADYVVPVEDNDENYIHPTESSSPPPEKAPMVNRSTKPNSSTPASPPGTASGRNSGAWETKSPPPAAPSPLPRAGKKPTTPLKTTPVASQQNASSVCEEKPIPAERHRGSSHRQEAVQSPVFPPAQKQIHQKPIPLPRFTEGGNPTVDGPLPSFSSNSTISEQEAGVLCKPWYAGACDRKSAEEALHRSNKDGSFLIRKSSGHDSKQPYTLVVFFNKRVYNIPVRFIEATKQYALGRKKNGEEYFGSVAEIIRNHQHSPLVLIDSQNNTKDSTRLKYAVKVS | soluble
SDLGAITKYSALHAKPNGLILQYGTAGFRTKAEHLDHVMFRMGLLAVLRSKQTKSTIGVMVTASHNPEEDNGVKLVDPLGEMLAPSWEEHATCLANAEEQDMQRVLIDISEKEAVNLQQDAFVVIGRDTRPSSEKLSQSVIDGVTVLGGQFHDYGLLTTPQLHYMVYCRNTGGRYGKATIEGYYQKLSKAFVELTKQASCSGDEYRSLKVDCANGIGALKLREMEHYFSQGLSVQLFNDGSKGKLNHLCGADFVKSHQKPPQGMEIKSNERCCSFDGDADRIVYYYHDADGHFHLIDGDKIATLISSFLKELLVEIGESLNIGVVQTAYANGSSTRYLEEVMKVPVYCTKTGVKHLHHKAQEFDIGVYFEANGHGTALFSTAVEMKIKQSAEQLEDKKRKAAKMLENIIDLFNQAAGDAISDMLVIEAILALKGLTVQQWDALYTDLPNRQLKVQVADRRVISTTNAERQAVTPPGLQEAINDLVKKYKLSRAFVRPSGTEDVVRVYAEADSQESADHLAHEVSLAVFQLAGGIGERPQPGF | not soluble
SDLVITQELARAESQQDAASLKKAYELIKSANLGKSEFDPSESFSPDLFVLCAEQALKMRQPEVSEDCIQMYFKVKAPITQFLGRAHLCRAQMCAPKSAENLEEFENCVTEYMKAINFAKGEPRYYFLVYNASVLYWQMVRPFLKPGYRHHLIPSLSQIINVLSQTEEEDKEWRAELMLELLECYLQAGRKEEAARFCSTAAPFIKSHVPQKYRQIFSVMVNQRIRNRDVRSNFLKSHCSENCVEIT | soluble
SDLWVQKMKTYFNRIDFDKDGAITRMDFESMAERFAKESEMKAEHAKVLMDSLTGVWDNFLTAVAGGKGIDETTFINSMKEMVKNPEAKSVVEGPLPLFFRAVDTNEDNNISRDEYGIFFGMLGLDKTMAPASFDAIDTNNDGLLSLEEFVIAGSDFFMNDGDSTNKVFWGPLV | soluble
SDPVDYQAEDATIVQGAVESNHAGYTGTGFVNYDNVAGSSVEWTVTVPSAGTYDVVVRYANGTTTSRPLDFSVNGSISASGVAFGSTGTWPAWTTKTVRVTLAAGVNKIKAVATTANGGPNVDKITL | soluble
SEKMSRPLPLNPTFIPPPYGVLRSLLENPLKLPLHHEDAFSKDKDKEKKLDDESNSPTVPQSAFLGPTLWDKTLPYDGDTFQLEYMDLEEFLSENGIPPSPSQHDHSPHPPGLQPASSAAPSVMDLSSRASAPLHPGIPSPNCMQSPIRPGQLLPANRNTPSPIDPDTIQVPVGYEPDPADLALSSIPGQEMFDPRKRKFSEEELKPQPMIKKARKVFIPDDLKDDKYWARRRKNNMAAKRSRDARRLKENQIAIRASFLEKENSALRQEVADLRKELGKCKNILAKYEARHGPL | soluble
SEKYNSLSDFLKEFYIPTYVLSAETEEEEEEESRPTPASPVLVFINSKSGGQLGGELILTYRSLLNHNQVFDLDQETPDKVLRRIYLNLERLKDDDFARQIREKLKIIVAGGDGTAGWLLGVVCDLKLSHPPPIATVPLGTGNNLPFAFGWGKKNPGTDRTAVESFLEQVLKAKVMKIDNWHILMRMKTPKEGGSCDPVAPLELPHSLHAFHRVSPTDELNKEGCHTFRGGFWNYFSLGMDAQISYAFHSERKLHPEKFKNQLVNQSTYVKLGCTQGWFCASLFHPASRNIAQLAKVKIATRNGQWQDLHIPHSIRSIVCLNLPSFSGGLNPWGTPNPRKQRDRGLTPPFVDDGLIEVVGFRNAWHGLVLLAPNGHGTRLAQANRIRFEFHKGATDHTFMRMDGEPWKQPLPLDDETVMVEISHLGQVNMLATHDCRSRSVFDPSTPRHQDGAEDYDDNEDDSVAEGEEFRKFGAADTFKIPDEVDISQLS | soluble
SELDAKLNKLGVDRIAISPYKQWTRGYMEPGNIGNGYVTGLKVDAGVRDKSDNNVLDGIVSYDRAETKNAYIGQINMTTAS | soluble
SELPVRCRNISGTLYKNRLGSGGRGRCIKQGENWYSPTEFEAMAGRASSKDWKRSIRYAGRPLQCLIQDGILNP | soluble
